Substitutions are numbered along the chain they refer to.
B1: 36D6 (antibody, V domains shown)
VH: EVQLQESGPELKKPGETVKISCKASGYTFTKYGMNWVKQAPGKGLKWLAWINTDTGEAKYSDDFKGRFAFSLETSASIVYLQINNLKNEDTATYFCARGESYSNYVRFVYWGQGTTVTVSS
VL: DIVMTQSHKFMSTSVGDRVSITCKASQDVNTAVAWYQQKAGHSPKLLIYWTSTRHTGVPDRFTGSGSGTDYTLTISSVQAEDLTLYYCQQHYSTPWTFGGGTKLEIK
notes: also called 抗SIRPα抗体36D6
B2: 36G4 (antibody, V domains shown)
VH: EVQLVESGGGLVQPGGSLKLSCAASGFTFSNYGMSWVRQTPDKRLELVATINSNGGDTSYPDSVRGRFTISRDNAKNTLYLQMSSLKSEDTAMYYCTRGGWSWFAYWGQGTLVTVSA
VL: DIVLTQSPTSLAVSLGQRATISCRASESADSYGNSYMNWYQQKPGQPPKLLIYLASNLESGVPARFSGSGSRTDFTLTIDPVEADDAATYYCQQINEDPYTFGGGTKLEIK
notes: also called 抗SIRPα抗体36G4
B3: 40F3 (antibody, V domains shown)
VH: QVQLQQPGAELGKPGASVKLSCKASGYTFSSYYIYWLKQRPGQGLEWIGGINPSNDDTHLTEKFKSKATLIADRSSSTAYIQLSSLTSEDSAVYYCTRSYYANSWFAYWGQGTLVTVSA
VL: DIVLTQSPLSLPVSLGDQASISCRSSQTIVHSNGNTYLAWYLQKPGQSPKLLIYKVSNRFSGVPDRFSGSGSGTEFTLKISRVEAEDLGVYYCFQGSHVPYTFGGGTKLEIK
notes: also called 抗SIRPα抗体40F3
B4: 52B3 (antibody, V domains shown)
VH: EVQLQQSGAELVRSGASVKMSCKASDYTFTSYNLHWVKQTPGQGLEWIGYIYPGNGNTKYSQKFKGKATLTADTSSSTAYMQISSLTSEDSAVYFCTRNYDYYFYTMGYWGQGTTVTVSS
VL: DIVLTQSPKFMSTSVGDRVNITCKASQDVCTAVAWYQQKPGQSPKLLIYSASYRYTGVPDRFTGSGSRTDFTFTISSVQAEDLAVYYCQQHYSTPLTFGAGTKLELK
notes: also called 抗SIRPα抗体52B3
B5: 57B10 (antibody, V domains shown)
VH: B4 VH with Q3K, Q6E, D26G, L34M, V37I, N57A, K59N, S61N, T97A, G108D
VL: B4 VL with P8T, N20S, C30S, Y86F, Y92F, T94A
notes: also called 抗SIRPα抗体57B10
B6: Kwar23 (antibody, V domains shown)
VH: EVQLQQSGAELVKPGASVKLSCTASGFNIKDYYIHWVQQRTEQGLEWIGRIDPEDGETKYAPKFQDKATITADTSSNTAYLHLSSLTSEDTAVYYCARWGAYWGQGTLVTVSS
VL: QIVLTQSPAIMSASPGEKVTLTCSASSSVSSSYLYWYQQKPGSSPKLWIYSTSNLASGVPARFSGSGSGTSYSLTISSMEAEDAASYFCHQWSSYPRTFGAGTKLELK

Assays:
重组hu-SIRPα-his = 重组hu-SIRPα-his (human, UniProt P78324 31-370, limits assumed); assay: ELISA on coated hu-SIRPα-his (0.5 μg/ml), anti-mouse IgG-HRP
重组hSIRPα [1] = target: T1, 重组hSIRPα (human, UniProt P78324 31-370, limits assumed); assay: competition ELISA on coated hSIRPα (1 μg/ml) against biotinylated CD47-Fc (6 μg/ml)
T1 construct: also called SIRPα蛋白; SIRPα抗原

[2] = target: 人SIRPα受体 on CHO cells (CHO-huSIRPα) (human) (UniProt P78324); assay: flow cytometry on CHO-huSIRPα cells, PE anti-mouse IgG Fc
[3] = target: 猴SIRPα受体 on CHO cells (CHO-cyno-SIRPα) (monkey (cyno)); assay: flow cytometry on CHO-cyno-SIRPα cells, PE anti-mouse IgG Fc
[4] = target: 人SIRPα受体 on CHO cells (CHO-huSIRPα) (human) (UniProt P78324); assay: flow cytometry, hybridoma supernatant on CHO-huSIRPα cells, PE anti-mouse IgG Fc
[5] = target: 猴SIRPα受体 on CHO cells (CHO-cyno-SIRPα) (monkey (cyno)); assay: flow cytometry, hybridoma supernatant on CHO-cyno-SIRPα cells, PE anti-mouse IgG Fc
重组hSIRPg-his [6] = target: T2, 重组hSIRPg-his (human, UniProt Q9P1W8 29-360, limits assumed); assay: ELISA on coated hSIRPg-his (1 μg/ml), anti-mouse IgG-HRP
T2 construct: also called sirp-γ

重组hSIRPα [7] = target: T1, 重组hSIRPα; assay: SPR (Biacore T200), antibody captured on Protein A chip, SIRPα protein as analyte, 1:1 Langmuir fit
重组hSIRPg-his [8] = target: T2, 重组hSIRPg-his; assay: competition ELISA on coated hSIRPg-his (1 μg/ml) against biotinylated CD47-Fc (6 μg/ml)

Molecule	EC50 (重组hu-SIRPα-his)	IC50 (重组hSIRPα [1])	MFI [2]	MFI [3]	MFI [4]	MFI [5]	binding result (重组hSIRPg-his [6])	Kd (重组hSIRPα [7])	IC50 (重组hSIRPg-his [8])
SE5A5 (antibody)	0.0225 µg/mL	0.121 µg/mL							
mIgG (antibody)			86.6 MFI	76.4 MFI					
B1	0.0192 µg/mL	0.248 µg/mL			9270 MFI	5000 MFI			
B2	0.0235 µg/mL	0.15 µg/mL			9520 MFI	4560 MFI			
B3	0.00587 µg/mL	0.0653 µg/mL			17200 MFI	7570 MFI	no binding	~10 pM	
B4	0.00736 µg/mL	0.121 µg/mL			13600 MFI	6980 MFI			0.196 µg/mL
B5	0.00546 µg/mL	0.0633 µg/mL			18500 MFI	9230 MFI		~10 pM	
B6									0.0394 µg/mL
